Assay results as given in publication PMC4373793.
Where “and” joins values, the source holds several entries; their conditions need not be identical. Equal values may be shown once.

Columns and labels:
[1] = molecular target: Streptococcal surface enolase mutant SEN^K312A (Streptococcus pyogenes (group A Streptococcus)) (UniProt P69949); assay: crystal structure; hanging drop, 1-3.5 M sodium/potassium phosphate pH 5-7.5, 2% PEG 400; space group P4; octamer = tetramer of dimers
[2] = molecular target: Streptococcal surface enolase mutant SEN^K312A (Streptococcus pyogenes (group A Streptococcus)) (UniProt P69949); assay: native MS; Superdex-200 in 200 mM NH4OAc pH 6.8, peak fractions pooled, Synapt HDMS under conditions that preserve non-covalent interactions; single peak of wild type and K312A, elution peak 1 of K362A
[3] = molecular target: Human Glu-plasminogen (circulating form of human plasminogen) (human); assay: ELISA; plate coated with serial dilutions of Glu-plasminogen (carbonate buffer pH 9.6); wells incubated with 5 ug wild-type or mutant SEN; apparent KD, one-site specific binding
[4] = molecular target: Human Glu-plasminogen (circulating form of human plasminogen) (human); assay: SPR; BIAcore 3000; Glu-plasminogen immobilised on a CM5 chip (~10,000 RU; also a lower-density surface ~1,000 RU); 100 nM SEN injected 500 s at room temperature in 10 mM HEPES pH 7.4, 0.15 M NaCl, 3 mM EDTA, 0.005% P20, 30 ul/min; kinetic models could not be fitted, assessed qualitatively
[5] = molecular target: Streptococcal surface enolase (SEN), wild-type, group A Streptococcus (Streptococcus pyogenes) (Streptococcus pyogenes (group A Streptococcus)) (UniProt P69949); assay: crystal structure; hanging drop, 1-3.5 M sodium/potassium phosphate pH 5-7.5, 2% PEG 400; space group P4; octamer = tetramer of dimers
[6] = molecular target: Streptococcal surface enolase (SEN), wild-type, group A Streptococcus (Streptococcus pyogenes) (Streptococcus pyogenes (group A Streptococcus)) (UniProt P69949); assay: native MS; Superdex-200 in 200 mM NH4OAc pH 6.8, peak fractions pooled, Synapt HDMS under conditions that preserve non-covalent interactions; single peak of wild type and K312A, elution peak 1 of K362A
[7] = molecular target: Streptococcal surface enolase mutant SEN^K362A (Streptococcus pyogenes (group A Streptococcus)) (UniProt P69949); assay: crystal structure; hanging drop, 1-3.5 M sodium/potassium phosphate pH 5-7.5, 2% PEG 400; space group P4; octamer = tetramer of dimers
[8] = molecular target: Streptococcal surface enolase mutant SEN^K362A (Streptococcus pyogenes (group A Streptococcus)) (UniProt P69949); assay: native MS; Superdex-200 in 200 mM NH4OAc pH 6.8, peak fractions pooled, Synapt HDMS under conditions that preserve non-covalent interactions; single peak of wild type and K312A, elution peak 1 of K362A

Substance	stoichiometry N [1]	stoichiometry N [2]	Kd [3] [nM]	percent increase in plasminogen binding (against wild-type SEN) [4] [%]	stoichiometry N [5]	stoichiometry N [6]	stoichiometry N [7]	stoichiometry N [8]
Streptococcal surface enolase mutant SEN^K312A (from UniProt P69949 1-435) (enzyme)	8	8	19.3	196				
Streptococcal surface enolase (SEN), wild-type, group A Streptococcus (Streptococcus pyogenes) (from UniProt P69949 1-435) (enzyme)			14.1		8	8		
Streptococcal surface enolase mutant SEN^K362A (from UniProt P69949 1-435) (enzyme)			1.85	341			8	8 and 7
